Four molecules from patent US20190367619A1 (ARGENX, published 2019) can be followed below.

For experiment [1], the target named is T1, recombinant human galectin-10, TEV-cleaved (human, UniProt Q05315 1-142).
T1 sequence: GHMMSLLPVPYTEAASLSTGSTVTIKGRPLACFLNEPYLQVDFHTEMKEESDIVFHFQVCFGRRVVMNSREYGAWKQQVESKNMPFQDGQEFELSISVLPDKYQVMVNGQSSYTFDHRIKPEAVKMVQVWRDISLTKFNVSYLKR
Nature of the experiment: cell-based or functional assay.

Experiment [2] concerns the target T1, recombinant human galectin-10, …. The experiment in a line: cell-based or functional assay. The source holds these as a separate data set.
Experiment [3] addresses T2, cynomolgus galectin-10-His, YRT isoform (cynomolgus).
T2 construct: also called cynoGal10-YRT; not shown: His tag
T2 chain: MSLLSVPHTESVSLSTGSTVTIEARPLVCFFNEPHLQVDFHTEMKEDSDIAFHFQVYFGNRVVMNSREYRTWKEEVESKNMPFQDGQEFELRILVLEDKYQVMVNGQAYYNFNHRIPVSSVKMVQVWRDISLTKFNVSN
The experiment in a line: ELISA, coated antigen 0.5 ug/mL. The procedure: (§1) In a similar setup to that used during the characterization of the scFv-human Fc molecules, the relative binding properties of the 7 mouse IgG1 antibodies were analyzed by ELISA. A Maxisorp plate was coated overnight with 0.5 μg/mL of human or cynomolgus WGS or YRT isoform of galectin-10-His. Then a serial dilution of each clone (from 100 nM, dilution 1/4, 12 points of dilutions) was incubated on coated galectin-10. After several washing steps, detection of the bound mouse IgG1 was carried out with an anti-mouse Fc-HRP antibody (DAMPO, Jackson ImmunoResearch, Catalog 715-035-150). Absorbance was measured at 450 nm (reference at 620 nm) with Tecan instrument. The raw data (OD values) were plotted on GraphPad Prism 7.01. The EC50 values for each antibody, calculated with a non-linear regression (log(agonist) vs. response Variable slope (four parameters)), are shown in the table below. Antibody 1D11 from the previous panel was included for comparison.

Experiment [4] has as its target T3, human galectin-10-His (human).
T3 construct: The last M of the tag may be Met1 of galectin-10; also called humanGal10-His; hGal10
T3 chain: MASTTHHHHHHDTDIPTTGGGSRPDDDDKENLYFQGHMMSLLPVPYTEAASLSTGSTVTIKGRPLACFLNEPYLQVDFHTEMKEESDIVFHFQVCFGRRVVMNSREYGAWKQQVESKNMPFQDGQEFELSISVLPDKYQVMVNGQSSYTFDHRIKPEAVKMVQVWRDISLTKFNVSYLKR
Nature of the experiment: ELISA, coated antigen 0.5 ug/mL. The protocol:
as §1
For orientation: In an ELISA, binding on a coated surface is turned into a signal by an enzyme label.

Experiment [5] has as its target T3, human galectin-10-His. The experiment in a line: SPR Biacore T3000, mouse IgG1 captured. The protocol:
(§2) The binding capacity of the mouse IgG1 antibody panel to galectin-10 was analysed on Biacore T3000. For this purpose, a capture approach was used, where a fixed concentration (1.5 μg/mL) of the mouse IgG1 clone was captured by polyclonal anti-mouse Fc antibodies immobilized on CM5 Chip to reach a binding signal around 150 RU. Then a serial dilution of human and cynomolgus WGS isoform of galectin-10-His (serial dilution, 1 over 2 from 5 μg/mL) diluted in HBS-EP pH7.4 was injected. Raw data were analysed via BIA evaluation software with a blank subtraction. The kd/KD and Rmax of each mAbs to galectin-10-His was determined using the Fit Kinetics simultaneous ka/kd/Binding with mass transfer/Local Rmax on BIA evaluation software.
On the technique in general: SPR reads the build-up and loss of mass on a sensor chip optically.

For experiment [6], the target named is T4, cynomolgus galectin-10-His, WGS isoform (cynomolgus).
T4 construct: also called cynoGal10-WGS; not shown: His tag
T4 chain: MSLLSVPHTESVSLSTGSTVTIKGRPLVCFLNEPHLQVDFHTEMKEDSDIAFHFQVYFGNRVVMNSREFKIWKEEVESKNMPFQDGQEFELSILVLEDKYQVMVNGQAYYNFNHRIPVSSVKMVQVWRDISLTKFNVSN
The experiment in a line: ELISA, coated antigen 0.5 ug/mL. The procedure: as §1

The target of experiment [7] is T4, cynomolgus galectin-10-His, WGS isoform. Nature of the experiment: SPR Biacore T3000, mouse IgG1 captured. The procedure: as §2

B1: 10A06 mouse IgG1 (antibody, V domains shown)
VH: QVQLVESGGGLVQPGGSLRLSCAASGFTFGNYDMSWVRQAPGKGPEWVSDINSGGGSTYYADSVKGRFTISRDNAKNSLLLQMNSLKPEDTAVYYCATGYTGYYYWGQGTQVTVSS
VL: QTVVTQEPSLSVSPGGTVTLTCGLSSGSVTSSNYPAWYQQTPGQAPRALIYSINSRHSGVPDRFSGSISGNKAALTITGAQAEDEADYYCTLYMGTGSNNVVFGGGTHLTVL
notes: VH and VL cloned in frame with mouse IgG1 constant domains; also called 10A06 mIgG1
Broadly, the EC50 is the concentration needed to bring the measured effect to its halfway point. A higher EC50 goes with a less potent agent. What is called Kd is the concentration at which binding is half-saturated. Broadly, the koff is the first-order rate constant of dissociation. What is called kon is the rate constant with which the complex forms. Regarding B1, in experiment [1], the “50% crystal dissolution (min), 50 uM” value was above 120 min and the “90% crystal dissolution (min), 50 uM” value was above 120 min. Further, in experiment [2], the “50% dissolution (min) of CLCs, antibody 50 uM” value (“50% dissolution (min) of CLCs” for short) was 44.5 min and the “90% dissolution (min) of CLCs, antibody 50 uM” value (“90% dissolution (min) of CLCs” for short) was 86.6 min. In experiment [3], this molecule had an EC50 of 0.06 nM and an OD values of 3.38 OD. In the experiment with human galectin-10-His [4], this molecule showed an EC50 of 0.63 nM and an OD values of 0.3 OD. In the experiment with human galectin-10-His [5], the Kd came out at 0.9 nM, the koff turned out to be 0.0101 s⁻¹ and the kon came out at 1.17e+07 M⁻¹ s⁻¹.

B2: 11F02 mouse IgG1 (antibody, V domains shown)
VH: ELQVVESGGGLVQPGGSLRLSCAASGFTFSTNYMNWVRQAPGKGLEWVSGITSHGARTYYADSVKGRFTISRDNSKNTLYLQMNSLKPEDTALYYCARTDHASLDAWGQGTLVTVSS
VL: QTVVTQEPSLSVSPGGTVTLTCGLSSGSVTSSNYPGWYQQKPGQAPRTLIYNTNSRYSGVPNRFSGSISGNKAALTITGAQPEDEADYYCALYMGSSSYNTVFGGGTHLTVL
notes: VH and VL cloned in frame with mouse IgG1 constant domains; also called 11F02 mIgG1
B2: in experiment [2], the “50% dissolution (min) of CLCs” value was determined as 25.5 min and the “90% dissolution (min) of CLCs” value was 57.5 min. The molecule further came in with an OD values in experiment [3] of 1.7 OD. In the experiment with human galectin-10-His [4], this molecule gave an EC50 of 3.08 nM and an OD values of 0.9 OD. In experiment [6], this molecule gave an EC50 of 0.6 nM and an OD values of 3.29 OD. In the experiment with human galectin-10-His [5], the Kd is 2.2 nM, the koff worked out at 0.00489 s⁻¹ and the kon stood at 2.27e+06 M⁻¹ s⁻¹. In experiment [7], the Kd was 5 nM, the koff was 0.00198 s⁻¹ and the kon is 394000 M⁻¹ s⁻¹.

B3: 11F12 mouse IgG1 (antibody, V domains shown)
VH: QVQLQESGGGLVQPGGSLRLSCAASGFTFSTNYMNWVRQAPGKGLEWVSGITSGGGRTYYADSVKGRFTISRDNAKNTLYLQMNSLKPEDTALYYCARTDHAWLDAWGQGTLVTVSS
VL: HSAVTQPPSVSGTLGKTVTISCAGTSSDVGYGNYVSWYQHLPGTAPKLLIYAVSTRASGVPDRFSGSKSGNTASLTISGLQSEDEGDYYCASYSVRNNVVFGGGTRLTVL
notes: VH and VL cloned in frame with mouse IgG1 constant domains; also called 11F12 mIgG1
Turning to B3, in experiment [1], the “50% crystal dissolution (min), 50 uM” value was determined as 65.4 min and the “90% crystal dissolution (min), 50 uM” value was above 120 min. Also, in experiment [2], the “50% dissolution (min) of CLCs” value came to 21.3 min and the “90% dissolution (min) of CLCs” value worked out at 42.6 min. For the same molecule, in experiment [3], the EC50 is 0.21 nM and the OD values worked out at 3.35 OD. In the experiment with human galectin-10-His [4], this molecule returned an EC50 of 4.83 nM and an OD values of 2.7 OD. Further, in the experiment with human galectin-10-His [5], the Kd was found to be 0.7 nM, the koff is 0.00224 s⁻¹ and the kon is 3.04e+06 M⁻¹ s⁻¹.

B4: 10D02 mouse IgG1 (antibody, V domains shown)
VH: EVQLVESGGGLVQPGGSLRVSCAASGFTFSSYYMSWVRQAPGKGLEWVSGIVTGGGRTHYTDSVKGRFTITRDNAKNTLYLQMNSLRPEDTALYYCARVNGVVTNYDYWGQGTQVTVSS
VL: QAVLTQPPSVSGSPGKTVTISCAGTSSDVGYGNYVSWYQQLPGMAPKLLIYDVNKRASGITDRFSGSKSGNTASLTISGLQSEDEADYFCASYRSPNNVVFGQGTHLTVL
notes: VH and VL cloned in frame with mouse IgG1 constant domains; also called 10D02 mIgG1
As to B4, in experiment [2], the “50% dissolution (min) of CLCs” value worked out at 26.5 min and the “90% dissolution (min) of CLCs” value turned out to be 58.6 min. Further, the OD values in experiment [3] was 2.63 OD. In the experiment with human galectin-10-His [4], this molecule yielded an EC50 of 3.55 nM and an OD values of 2.7 OD. In addition, in experiment [6], the midpoint of the response, the EC50, lay at 0.14 nM and the OD values worked out at 3.51 OD. In addition, in the experiment with human galectin-10-His [5], the Kd turned out to be 1.6 nM, the koff stood at 0.000865 s⁻¹ and the kon was 547000 M⁻¹ s⁻¹. In experiment [7], the Kd is 1.9 nM, the koff was found to be 0.000912 s⁻¹ and the kon was found to be 477000 M⁻¹ s⁻¹.
